A short description of this data set: yeast display, Sf9 membrane polyspecificity reagent, FACS + sequencing; frameworks hold sequencing errors. An outline of the steps: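 Galactose-induced (36–48 hours) yeast carrying a synthetic nanobody display library were exposed to 10% biotinylated, detergent-solubilized Sf9 membrane reagent at 4 °C for 1 hour. FACS followed streptavidin microbead enrichment, using low and high (top ~1%) gates for expression (anti-HA) and reagent binding (streptavidin). Colony PCR, MiSeq 2 × 250 sequencing and CDR-length filtering followed. Labels for polyreactivity reflect the gate of origin.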
On to “QVQLVESGGGLVQAGGSLRLSCADSGSIFYTYAMGWYRQAPGKEREFVAAITQTGGTTYNADSVKGRFTISRDNAKNTVYFQMNSLKQEDTAVYYCAARYRAYKLYGRHYYWGQGTQVTVSS”, for which the “polyreactivity (PSR sort gate)” value is recorded as “high polyreactivity”.
Under “QVQLVESGGGLVQAGGSLRLSCADSGSILTRNAMGWYRQAPGKERELVAAISYSGVRTYYADSVKGRFTISRDNAKNNVYLQMNSLKQEDTAVYYCNAVISSRYDYWGQGTQVTVSS” stands “high polyreactivity”; under “QVQLVESGGGLVQAGGSLRLSCADSGSISYSYAMGWYRQAPGKDRELVAAISWRGVSTYYADSVKGRFTISRDNAKNTVYLQMNSLKPEDTAVYYCNAVHHYPEHIGGGYWGQGTLVTVSS”, “low polyreactivity”; under “QVQLVESGGGLVQAGGSLRLSCADSGSTFNSNVMGWYRQAPGKERELVAAISRSGGNTYYADSVKGRFTISRDNAKNTVYLQMNSLKPEDTAVYYCNKDGRYPYDYWGQGTQVTVSS”, “high polyreactivity”.
On to “QVQLVESGGGLVQAGGSLRLSCADSGSTFYYYTKGWYRQAPGKERELVAAISFSGGSTYYADSVKGRFTISLYNAKNTVYLQMNSLKPEDTAVYDCAAAQRVYKSWGYYWGQGSQVTVSS”, for which the “polyreactivity (PSR sort gate)” value is “low polyreactivity”.
For “QVQLVESGGGLVQAGGSLRLSCADSGYTFGRNAMGWYRQAPGKERELVATISQRGGSTYYADSVKGRFTISLDNAKNTVYLQLNSLKPEDTAVYYCAAGPIYRYRRYYYWGQGTQVTVSS”, the “polyreactivity (PSR sort gate)” value is listed as “high polyreactivity”.
For “QVQLVESGGGLVQAGGSLRLSCADSRSIITNNAMGWYRQAPGKERELVAAISGSGGSTYYADSVKGRFTISRDNAKNTVYLQMNSLKPEDTAVYYCAANKSSRRMNYWGLGTQVTVSS”, the “polyreactivity (PSR sort gate)” value is “high polyreactivity”.
Under “QVQLVESGGGLVQAGGSLRLSCAGSGFISYYYAMGWYRQAPGKEREFVAAITSSGGSTRYADSVKGRFTISRDNAKNTVYLQMNSLKPEDTAVYYCNADYYWFFDFFDYDYWGQGTQVTVSS” stands “low polyreactivity”.
For “QVQLVESGGGLVQAGGSLRLSCAGSGINFHLYAMGWYRQAPGKERELVAAISWNGSSTYYADSVKGRFTISRDNAKNTVYLQMNSLKPEDTAVYYCAASYGYFEDYGYWGQGNQVTVSS”, the “polyreactivity (PSR sort gate)” value is “low polyreactivity”.
As to “QVQLVESGGGLVQAGGSLRLSCAGSGLIFDDYPMGWYRQAPGKERELVAAISWSDGTTYYADSVKGRFTISRDNAKNTVYLQMNSLKPEDTAVYYCAAEEVSGWEYDYWGQGTQVTVSS”, the “polyreactivity (PSR sort gate)” value is “high polyreactivity”.
The same measure for “QVQLVESGGGLVQAGGSLRLSCAGSGRSFVYNAMGWYRQAPGQDRELVAAITSGGRTYYADSVKGRFTISRDNAKNTVYLQINSLKPEDTAVYDCAKRFWFNTYAAHPAGFDYWGQGTQVTVSS”: “low polyreactivity”; for “QVQLVESGGGLVQAGGSLRLSCAGSGRTSLAYAMGWYRQAPGKERELVAGITSGGNTNYADSVKGRFTISCDNAKNTVYLQMNSLKPEDTAVYYCNKKKRWQWYSESVLDYLGFYSWGQGTQVTVSS”: “low polyreactivity”.
Under “QVQLVESGGGLVQAGGSLRLSCAGSGSTFFEYAMGWYRQAPGKDREFVAGISWSGGITYYADSVKGRFTISRDNAKNTVYLQMNSLKPEDTAVYYCASAGGDWYGVDYWGQGTQVTVSS” stands “low polyreactivity”; under “QVQLVESGGGLVQAGGSLRLSCAGSGSTFQNNAMGWYSQAPGKERELVAAISRSSGRRYYADSVKGRFTISRDHAKNTVYCQMNSLKPEDTAGYYCAASLGGYITRYNYWGQGTQVTVSS”, “high polyreactivity”.
The same measure for “QVQLVESGGGLVQAGGSLRLSCAGSGSTFRSNALGWYRQEPGKVRELVAAISLRGGSTDYADSVKGRFTISRDNAKNTVYLQMNSLTPEDTAVYFCAKVSKRVGFPTAMNYWGHGTQVTVSS”: “high polyreactivity”.
Take “QVQLVESGGGLVQAGGSLRLSCAHSGFIFCNYAMGWYRHAPGKERELVAAITSGGTSTYYADSVKGRFTISRDNAKNTVYLQMNCLKPEDTAVYFCAAVTGLFSYWDYSAMYYWGQGTQVTVSS”: the “polyreactivity (PSR sort gate)” value is “high polyreactivity”.
The same measure for “QVQLVESGGGLVQAGGSLRLSCAHSGYILGGYGMGWYRQAPGKERELVAVITSSGSTDYADSVKGRYTISRDNAMNTVYVQMNTLKPEDSAGYYCAADFLWYIYNIGTSLEYDYWGQGTQVTVSS”: “low polyreactivity”; for “QVQLVESGGGLVQAGGSLRLSCAMGWYRPAPGKERELVAGITGGGRTHYADSVKGRFTISRDNAKNTVYLQMNSLKPEDTAVYYCAAGGVRSQVPWSWYYYWGQGTQVTVSS”: “low polyreactivity”; for “QVQLVESGGGLVQAGGSLRLSCAPPDLPSVVMLWDGIDRRLGKKGSSLPLLLLLVVSHADSVKGRFTISRDNAKNTVYLQMNSLKPDDTAVYYCAVAVLPWQLYSESYAEYDYWGQGTQVTVSS”: “low polyreactivity”.
Under “QVQLVESGGGLVQAGGSLRLSCAPSGFFFYSNTMGWYRQAPGKERELVDTISKRSGNTYYADSVKGRFTISRDFAKNTVYLQMNSLKPEDTSVYYCAADFWVRHKMWYPYTSIQAYNYWGQGTQVTVSS” stands “high polyreactivity”.
Take “QVQLVESGGGLVQAGGSLRLSCAPSGFIFPLYTMGWYTQAPGKERELVAAIDFSGASTYYADSVKGRFTISRDNAKNTVYLLMNSLKPEDTAVYYCATYGSYRITVFYAYYYWGQGTQVTVSS”: the “polyreactivity (PSR sort gate)” value was “low polyreactivity”.
Take “QVQLVESGGGLVQAGGSLRLSCAPSGFIFTRYAMGWYRQAPGKERELVAAISWSGGSTYYADSVKGRFTISRDNAKNTVYLQMNSLKPEDTAVYYCAADGSDSYDYWGQGTQVTVSS”: the “polyreactivity (PSR sort gate)” value is listed as “low polyreactivity”.
Under “QVQLVESGGGLVQAGGSLRLSCAPSGGTFYSYAMGWYRQAPGKESELVAAISRRGASTYYADSVKGRFTISRDNAKNNVYLQMNSLKPEDTAGYYCAAKGRSYGVTRMYYWGQGTQVTVSS” stands “high polyreactivity”; under “QVQLVESGGGLVQAGGSLRLSCAPSGHIFLQNAMGWYRQAPGKERELVAGITYSDTSTYADSVKGRFTISRDNAKNTVYLQMNSLKPEDTAVYYCEYYYWGQGTQVTVSS”, “low polyreactivity”.
“QVQLVESGGGLVQAGGSLRLSCAPSGITFGEYAMGWYRPAPGKERELVAAISRSGGSTYADSVKGRFTISRDNAKNTVYLQMNSLKPEDTAVYYCAAYSGVGYLWFDYWGQGTQVTVSS”: the “polyreactivity (PSR sort gate)” value is recorded as “low polyreactivity”.
The same measure for “QVQLVESGGGLVQAGGSLRLSCAPSGITFRFYAMGWYRQAPGKEREFVAAISRSDSSYYADSVKGRFTISRDNAKNTVYLHMNSLKPEDSAVYYCAADSYRSAQGLDYWGQGSQVTVSS”: “high polyreactivity”.
In the case of “QVQLVESGGGLVQAGGSLRLSCAPSGLILDGNVMGWYRQAPGTERELVAAINTSGGSTYYADSVKGRFTISRDNAKNTVYLQMNSLKPEDTAVYYCAARYPTDYDYWGQGTQVTVSS”, the “polyreactivity (PSR sort gate)” value is “low polyreactivity”.
In the case of “QVQLVESGGGLVQAGGSLRLSCAPSGLTFTTYAMGWYRQAPGKERELVAAISRRGSRTYYADSVKGRFTISRDNAKNTVYLQMNSLKPEDTAVYYCNALTGSFKTYSFDYWGQGTQVTVSS”, the “polyreactivity (PSR sort gate)” value is recorded as “high polyreactivity”.
The same measure for “QVQLVESGGGLVQAGGSLRLSCAPSGLTFVGYAMGWYRQAPGKERELVAAISGVGTTNYADSVKGRFTISRDNAKNTVYLQMNSLKPEDTAVYYCATAPYPVPYRLYDYWGQGTQVTVSS”: “low polyreactivity”; for “QVQLVESGGGLVQAGGSLRLSCAPSGNTFEHYAMGWYRQAPGKERELVAAISYSGGSTYYADSVKGRFTISRDNAKNTVYLQMNSLKPEDTAVYYCNARGRASATGRRGRPDPFGYWGQGTQVTLSS”: “high polyreactivity”.
